Source: the supplement of paper PMC9732359
± gives the uncertainty stated by the source.

Test: protein stability index of a GFP-peptide fusion (yeast GPS) (PSI 1-4); higher = more stable; sorted into four equal gates, so the index is relative within each strain
How it was run: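 Plasmids in a pooled yeast library fused tiled 17-residue yeast protein peptides downstream of GFP and also expressed Cherry. Mid-log cultures grown without leucine were sorted into four equal gates by GFP/Cherry fluorescence ratio. Each gate's plasmids were PCR-amplified and Illumina-sequenced, and reads were matched to strains by barcodes. The protein stability index is derived by multiplying each gate's read frequency by its gate number and summing the results.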

KFLKIASLKHDNETKAM [RPN3]
protein stability index (doa10∆): 2.75 ± 0.1
protein stability index (pdr5∆): 3.16 ± 0.13
protein stability index (san1∆): 2.76 ± 0.1
protein stability index (ubr1∆): 3.17 ± 0.12

RLFIKPGQKMSLFSHRK [BRN1]
protein stability index (doa10∆): 2.74 ± 0.14
protein stability index (pdr5∆): 3.06 ± 0.11
protein stability index (san1∆): 3.07 ± 0.13
protein stability index (ubr1∆): 3.02 ± 0.12

QTTEGYDPKDALKNACN [RPB11]
protein stability index (doa10∆): 3.28 ± 0.26
protein stability index (pdr5∆): 3.28 ± 0.14
protein stability index (san1∆): 3.26 ± 0.082
protein stability index (ubr1∆): 3.35 ± 0.15

NNKNKRVTGAGGQQRRM [RPC53]
protein stability index (pdr5∆): 2.78 ± 0.2
protein stability index (ubr1∆): 3.33 ± 0.073

GLKYALATGNWGEQKKA [RPB2]
protein stability index (doa10∆): 2.58 ± 0.097
protein stability index (pdr5∆): 2.85 ± 0.075
protein stability index (san1∆): 3.01 ± 0.082
protein stability index (ubr1∆): 2.8 ± 0.063

GDIVRMLETAGFSMNNP [SMC3]
protein stability index (doa10∆): 3.08 ± 0.095
protein stability index (pdr5∆): 3.26 ± 0.1
protein stability index (san1∆): 3.04 ± 0.089
protein stability index (ubr1∆): 3.16 ± 0.054

PLQGIFHNAVFNSFRRF [QCR8]
protein stability index (doa10∆): 2.67 ± 0.064
protein stability index (pdr5∆): 2.47 ± 0.048
protein stability index (san1∆): 2.38 ± 0.054
protein stability index (ubr1∆): 1.96 ± 0.031

ELNVDSMDVDDKNSGVK [ITC1]
protein stability index (doa10∆): 1.97 ± 0.1
protein stability index (pdr5∆): 1.27 ± 0.042
protein stability index (san1∆): 1.68 ± 0.1
protein stability index (ubr1∆): 1.43 ± 0.06

VFERFKTKILEVAIRDV [IRR1]
protein stability index (doa10∆): 1.77 ± 0.081
protein stability index (pdr5∆): 1.75 ± 0.09
protein stability index (san1∆): 1.43 ± 0.14
protein stability index (ubr1∆): 1.67 ± 0.072

IWVGEWKEVLAHNPELE [RPO31]
protein stability index (doa10∆): 3 ± 0.087
protein stability index (pdr5∆): 2.36 ± 0.078
protein stability index (san1∆): 2.74 ± 0.072
protein stability index (ubr1∆): 2.74 ± 0.053

LPIESQFVSKLVDNLNA [BRR2]
protein stability index (doa10∆): 2.32 ± 0.052
protein stability index (pdr5∆): 2.34 ± 0.049
protein stability index (san1∆): 2.5 ± 0.072
protein stability index (ubr1∆): 2.4 ± 0.059

MFNPLHESYCLPMDTNL [YMR129W/POM152]
protein stability index (doa10∆): 2.39 ± 0.059
protein stability index (pdr5∆): 2.83 ± 0.055
protein stability index (san1∆): 2.75 ± 0.058
protein stability index (ubr1∆): 2.36 ± 0.056

IRKLTLRDTFIELDQVL [RPO21]
protein stability index (doa10∆): 2.31 ± 0.12
protein stability index (pdr5∆): 2.89 ± 0.079
protein stability index (san1∆): 2.7 ± 0.074
protein stability index (ubr1∆): 2.23 ± 0.11

RGYTCQFVDMVLPNTAL [FAS1]
protein stability index (doa10∆): 1.75 ± 0.075
protein stability index (pdr5∆): 1.88 ± 0.048
protein stability index (san1∆): 1.32 ± 0.089
protein stability index (ubr1∆): 1.53 ± 0.05

QTNIWEENWDDVEVDDD [SEM1]
protein stability index (doa10∆): 3.27 ± 0.16
protein stability index (pdr5∆): 3.28 ± 0.09
protein stability index (san1∆): 3.37 ± 0.082
protein stability index (ubr1∆): 3.38 ± 0.13

GAEVLIKGSKLSLGEAF [COR1]
protein stability index (san1∆): 2.32 ± 0.15
protein stability index (ubr1∆): 2.37 ± 0.1

KELQYDNEQNLESDFVT [PRE2]
protein stability index (doa10∆): 2.93 ± 0.092
protein stability index (pdr5∆): 3.16 ± 0.075
protein stability index (san1∆): 2.91 ± 0.075
protein stability index (ubr1∆): 3.02 ± 0.055

VGGTTSISGFKEALLGQ [ARP9]
protein stability index (doa10∆): 2.67 ± 0.087
protein stability index (pdr5∆): 2.53 ± 0.053
protein stability index (san1∆): 2.51 ± 0.048
protein stability index (ubr1∆): 2.81 ± 0.039

RSEDPAGLGKTNELWAR [YGR119C/NUP57]
protein stability index (doa10∆): 2.82 ± 0.068
protein stability index (pdr5∆): 2.24 ± 0.077
protein stability index (san1∆): 3.25 ± 0.075
protein stability index (ubr1∆): 3.4 ± 0.088

LLGTMAGGAADCQFWET [PRE2]
protein stability index (doa10∆): 1.61 ± 0.069
protein stability index (pdr5∆): 2.6 ± 0.078
protein stability index (san1∆): 2.22 ± 0.084
protein stability index (ubr1∆): 2.65 ± 0.078

NNNNNNNNSNNIMSASG [YGL172W/NUP49]
protein stability index (doa10∆): 2.73 ± 0.059
protein stability index (pdr5∆): 2.48 ± 0.038
protein stability index (san1∆): 2.67 ± 0.077
protein stability index (ubr1∆): 3.1 ± 0.059

SSVMSSPRVEKRSFSST [YOR098C/NUP1]
protein stability index (doa10∆): 2.75 ± 0.057
protein stability index (pdr5∆): 2.23 ± 0.041
protein stability index (san1∆): 2.44 ± 0.052
protein stability index (ubr1∆): 2.54 ± 0.039

RKLEISSRFKHRQEIFK [GAL11]
protein stability index (doa10∆): 2.76 ± 0.064
protein stability index (pdr5∆): 3.1 ± 0.061
protein stability index (san1∆): 3.01 ± 0.059
protein stability index (ubr1∆): 3.09 ± 0.051

GALEEITKDHKVLARQQ [FAS2]
protein stability index (doa10∆): 2.31 ± 0.25
protein stability index (san1∆): 3.01 ± 0.12
protein stability index (ubr1∆): 2.73 ± 0.17

LTNDTFEKKLSIIKAKL [YML103C/NUP188]
protein stability index (doa10∆): 2.8 ± 0.11
protein stability index (pdr5∆): 2.99 ± 0.23
protein stability index (san1∆): 2.43 ± 0.21
protein stability index (ubr1∆): 3.3 ± 0.19

GKPHFSLLGGFDENIAR [PCI8]
protein stability index (doa10∆): 3.18 ± 0.11
protein stability index (pdr5∆): 2.91 ± 0.12
protein stability index (san1∆): 3.25 ± 0.095
protein stability index (ubr1∆): 2.96 ± 0.076

TGESEESSSEDDYEDQD [IRR1]
protein stability index (doa10∆): 3.5 ± 0.17
protein stability index (pdr5∆): 3.34 ± 0.16
protein stability index (ubr1∆): 3.57 ± 0.26

AMSETLSKVSLLTPDIG [PRE8]
protein stability index (doa10∆): 3.08 ± 0.11
protein stability index (pdr5∆): 3.19 ± 0.12
protein stability index (san1∆): 3.04 ± 0.13
protein stability index (ubr1∆): 3.35 ± 0.23

EIVDTYQEDIFVSESPS [ISW2]
protein stability index (doa10∆): 2.83 ± 0.093
protein stability index (pdr5∆): 2.8 ± 0.11
protein stability index (san1∆): 3.35 ± 0.092
protein stability index (ubr1∆): 2.6 ± 0.07

REIQTAVRLILPGELAK [HTB1]
protein stability index (doa10∆): 3.25 ± 0.088
protein stability index (pdr5∆): 3.14 ± 0.06
protein stability index (san1∆): 2.55 ± 0.088
protein stability index (ubr1∆): 3.08 ± 0.051

EQPCVDIISGKIHSILP [YJR042W/NUP85]
protein stability index (doa10∆): 3.02 ± 0.067
protein stability index (pdr5∆): 3.07 ± 0.1
protein stability index (san1∆): 3 ± 0.064
protein stability index (ubr1∆): 3 ± 0.053

QNRPYNHPELQGITRNV [RPC17]
protein stability index (doa10∆): 2.06 ± 0.046
protein stability index (pdr5∆): 2.38 ± 0.078
protein stability index (san1∆): 2.03 ± 0.087
protein stability index (ubr1∆): 2.17 ± 0.049

VQKRDEVKEQLGILKKK [SMC4]
protein stability index (doa10∆): 2.75 ± 0.095
protein stability index (pdr5∆): 3.01 ± 0.077
protein stability index (san1∆): 3.24 ± 0.061
protein stability index (ubr1∆): 2.78 ± 0.05

SIDFRTYRCSIKNLPAD [SRB2]
protein stability index (doa10∆): 2.32 ± 0.074
protein stability index (pdr5∆): 2.56 ± 0.079
protein stability index (san1∆): 2.19 ± 0.07
protein stability index (ubr1∆): 2.27 ± 0.067

YMDKAKQYDNRITKSNE [LRP1]
protein stability index (doa10∆): 3.08 ± 0.063
protein stability index (pdr5∆): 2.91 ± 0.056
protein stability index (san1∆): 2.97 ± 0.057
protein stability index (ubr1∆): 2.94 ± 0.074

HFKKPDITVHGEQIIVH [RRP45]
protein stability index (doa10∆): 1.43 ± 0.14
protein stability index (pdr5∆): 1.37 ± 0.23
protein stability index (ubr1∆): 1.4 ± 0.13

IPNLTAKPFQVTKEYFQ [FAS1]
protein stability index (doa10∆): 2.61 ± 0.051
protein stability index (pdr5∆): 2.95 ± 0.049
protein stability index (san1∆): 3.04 ± 0.061
protein stability index (ubr1∆): 2.79 ± 0.041

SAASKKKKNKNKGKKKR [SRP21]
protein stability index (doa10∆): 3.22 ± 0.081
protein stability index (pdr5∆): 3.04 ± 0.1
protein stability index (san1∆): 3.11 ± 0.056
protein stability index (ubr1∆): 3.22 ± 0.056

QRDFRKHGAVHLSTYLK [RPL21A]
protein stability index (doa10∆): 2.6 ± 0.046
protein stability index (pdr5∆): 2.41 ± 0.042
protein stability index (san1∆): 2.48 ± 0.054
protein stability index (ubr1∆): 2.71 ± 0.036

VLISKLSCEKITHYAVR [RRI1]
protein stability index (doa10∆): 1.45 ± 0.046
protein stability index (pdr5∆): 1.64 ± 0.051
protein stability index (san1∆): 1.66 ± 0.07
protein stability index (ubr1∆): 1.67 ± 0.039

DESSGTSRIDEEKPGLI [SMC4]
protein stability index (doa10∆): 2.89 ± 0.058
protein stability index (pdr5∆): 3.12 ± 0.047
protein stability index (san1∆): 2.94 ± 0.05
protein stability index (ubr1∆): 3.08 ± 0.065

HGILDDLETSLSQSSSY [MED2]
protein stability index (doa10∆): 2.98 ± 0.083
protein stability index (pdr5∆): 3.33 ± 0.1
protein stability index (san1∆): 3.12 ± 0.099
protein stability index (ubr1∆): 3.29 ± 0.14

TFDGIRMSSEEVNSLLL [GRR1]
protein stability index (doa10∆): 3.03 ± 0.099
protein stability index (pdr5∆): 3.04 ± 0.15
protein stability index (san1∆): 3.14 ± 0.15
protein stability index (ubr1∆): 2.92 ± 0.074

IFSVHGNTVVDGEGKVD [YCG1]
protein stability index (doa10∆): 3.12 ± 0.2
protein stability index (pdr5∆): 3.46 ± 0.18

SDDKTRQLSPHTLMSFA [PRE1]
protein stability index (doa10∆): 1.83 ± 0.046
protein stability index (pdr5∆): 2.12 ± 0.05
protein stability index (san1∆): 2.26 ± 0.082
protein stability index (ubr1∆): 2.18 ± 0.038

VFLYFEDNAGVIANPKG [RPL23A]
protein stability index (doa10∆): 2.43 ± 0.11
protein stability index (pdr5∆): 1.96 ± 0.051
protein stability index (san1∆): 2.27 ± 0.12
protein stability index (ubr1∆): 1.9 ± 0.047

RASKLKIQASDVNIIGK [RPO31]
protein stability index (pdr5∆): 3.04 ± 0.17
protein stability index (san1∆): 2.7 ± 0.24

NTHWGLVCPAETPEGQA [RPB2]
protein stability index (doa10∆): 1.53 ± 0.14
protein stability index (pdr5∆): 1.49 ± 0.1
protein stability index (san1∆): 1.78 ± 0.15
protein stability index (ubr1∆): 1.14 ± 0.097

PINLENNDGSYGLFLKY [SRB8]
protein stability index (doa10∆): 3.07 ± 0.11
protein stability index (pdr5∆): 2.34 ± 0.075
protein stability index (san1∆): 2.18 ± 0.14
protein stability index (ubr1∆): 1.81 ± 0.069

NTQLHGPSATDPETTAT [RGR1]
protein stability index (doa10∆): 3.01 ± 0.094
protein stability index (pdr5∆): 2.89 ± 0.088
protein stability index (san1∆): 2.65 ± 0.073
protein stability index (ubr1∆): 2.81 ± 0.068

YYSLNIDYHKTAKETKM [RPN11]
protein stability index (doa10∆): 2.75 ± 0.067
protein stability index (pdr5∆): 2.77 ± 0.072
protein stability index (san1∆): 2.87 ± 0.053
protein stability index (ubr1∆): 2.74 ± 0.06

SFELKEEDISDLWNNFG [RRP6]
protein stability index (doa10∆): 2.85 ± 0.1
protein stability index (pdr5∆): 3.1 ± 0.12
protein stability index (san1∆): 2.47 ± 0.091
protein stability index (ubr1∆): 3.26 ± 0.073

YILSLVSIKDSTGCVVG [YMR129W/POM152]
protein stability index (doa10∆): 1.41 ± 0.041
protein stability index (pdr5∆): 1.47 ± 0.047
protein stability index (san1∆): 1.92 ± 0.062
protein stability index (ubr1∆): 1.48 ± 0.034
